Tests used:
mLAMP1_ΔGYQTI = target: T1, mLAMP1_ΔGYQTI (mouse, UniProt P11438 25-369); experiment: flow cytometry, transfected 293-F cells
T1 construct: on cells; also called pXL6009; murine LAMP1; not shown: murine transmembrane domain and cytoplasmic tail with GYQTI replaced by 5 Ala
T1 sequence: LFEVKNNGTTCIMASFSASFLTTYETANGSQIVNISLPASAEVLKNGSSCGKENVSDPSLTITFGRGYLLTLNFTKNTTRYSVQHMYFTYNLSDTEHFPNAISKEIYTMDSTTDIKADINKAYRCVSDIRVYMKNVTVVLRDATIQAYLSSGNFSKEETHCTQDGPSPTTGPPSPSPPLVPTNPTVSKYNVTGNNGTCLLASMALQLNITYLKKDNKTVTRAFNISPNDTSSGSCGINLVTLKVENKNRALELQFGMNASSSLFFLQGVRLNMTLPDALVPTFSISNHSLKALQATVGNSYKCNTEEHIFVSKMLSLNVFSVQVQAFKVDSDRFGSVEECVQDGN

mLAMP1::histag = target: T2, mLAMP1::histag (mouse, UniProt P11438 25-369); experiment: ELISA
T2 construct: also called mouse LAMP1 (25-369); Mouse LAMP1
T2 sequence: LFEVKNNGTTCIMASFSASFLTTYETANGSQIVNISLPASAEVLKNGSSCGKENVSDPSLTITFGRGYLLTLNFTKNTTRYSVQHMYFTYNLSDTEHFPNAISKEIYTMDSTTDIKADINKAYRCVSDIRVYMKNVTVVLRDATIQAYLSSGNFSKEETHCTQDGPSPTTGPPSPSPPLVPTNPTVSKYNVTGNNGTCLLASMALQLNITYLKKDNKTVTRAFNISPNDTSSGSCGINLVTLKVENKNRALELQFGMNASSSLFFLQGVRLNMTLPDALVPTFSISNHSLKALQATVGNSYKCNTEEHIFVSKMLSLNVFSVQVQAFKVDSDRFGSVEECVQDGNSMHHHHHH

LAMP1::histag [1] = target: T3, LAMP1::histag (human, UniProt P11279 29-382); experiment: ELISA
T3 construct: extracellular domain without signal peptide, C-terminal 6 His tag, made in HEK293 cells; also called recombinant human LAMP1; human LAMP1 (29-382)
T3 sequence: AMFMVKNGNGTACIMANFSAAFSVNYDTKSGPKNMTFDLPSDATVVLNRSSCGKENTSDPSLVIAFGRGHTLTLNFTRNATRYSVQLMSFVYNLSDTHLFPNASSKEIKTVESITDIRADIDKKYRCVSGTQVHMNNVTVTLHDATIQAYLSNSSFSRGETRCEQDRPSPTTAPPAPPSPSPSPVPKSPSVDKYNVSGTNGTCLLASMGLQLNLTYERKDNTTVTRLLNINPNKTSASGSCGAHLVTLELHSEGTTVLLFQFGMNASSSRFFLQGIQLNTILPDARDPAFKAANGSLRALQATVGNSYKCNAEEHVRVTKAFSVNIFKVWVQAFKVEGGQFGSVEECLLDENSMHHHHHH

[2] = target: T4, mLAMP1_L12_LAMP1_L34::histag (mouse/human hybrid); experiment: ELISA
T4 construct: mouse LAMP1 (25-189) and human LAMP1 (196-382), His tag; also called Loop1-2: mLAMP1 Loop3-4: hLAMP1
T4 chain: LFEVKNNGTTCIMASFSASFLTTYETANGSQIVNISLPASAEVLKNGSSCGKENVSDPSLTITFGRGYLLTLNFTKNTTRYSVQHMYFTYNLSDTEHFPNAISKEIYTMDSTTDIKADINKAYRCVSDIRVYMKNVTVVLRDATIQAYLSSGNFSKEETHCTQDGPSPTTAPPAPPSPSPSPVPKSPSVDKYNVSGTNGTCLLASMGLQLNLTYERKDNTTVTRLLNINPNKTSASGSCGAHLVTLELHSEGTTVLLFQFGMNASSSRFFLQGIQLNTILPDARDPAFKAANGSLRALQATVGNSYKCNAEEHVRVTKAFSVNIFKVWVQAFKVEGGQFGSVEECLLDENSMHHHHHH

[3] = target: T5, LAMP1_L123_mLAMP1_L4::histag (human/mouse hybrid, UniProt P11279 29-375); experiment: ELISA
T5 construct: human LAMP1 (29-309) and mouse LAMP1 (299-369), His tag; also called Loop1-3: hLAMP1 Loop4: mLAMP1
T5 chain: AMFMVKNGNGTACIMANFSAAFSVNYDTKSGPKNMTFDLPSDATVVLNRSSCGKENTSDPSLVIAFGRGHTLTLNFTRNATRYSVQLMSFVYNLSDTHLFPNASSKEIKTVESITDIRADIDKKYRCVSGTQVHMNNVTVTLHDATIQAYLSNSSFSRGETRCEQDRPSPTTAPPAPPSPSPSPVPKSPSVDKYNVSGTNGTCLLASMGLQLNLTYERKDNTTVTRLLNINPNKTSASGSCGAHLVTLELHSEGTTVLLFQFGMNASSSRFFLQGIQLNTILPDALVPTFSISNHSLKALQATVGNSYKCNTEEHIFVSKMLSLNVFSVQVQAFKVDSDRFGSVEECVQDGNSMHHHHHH

[4] = target: T6, mLAMP1_L1_LAMP1_L234::histag (mouse/human hybrid); experiment: ELISA
T6 construct: also called Loop1: mLAMP1 Loop2-4: hLAMP1
T6 chain: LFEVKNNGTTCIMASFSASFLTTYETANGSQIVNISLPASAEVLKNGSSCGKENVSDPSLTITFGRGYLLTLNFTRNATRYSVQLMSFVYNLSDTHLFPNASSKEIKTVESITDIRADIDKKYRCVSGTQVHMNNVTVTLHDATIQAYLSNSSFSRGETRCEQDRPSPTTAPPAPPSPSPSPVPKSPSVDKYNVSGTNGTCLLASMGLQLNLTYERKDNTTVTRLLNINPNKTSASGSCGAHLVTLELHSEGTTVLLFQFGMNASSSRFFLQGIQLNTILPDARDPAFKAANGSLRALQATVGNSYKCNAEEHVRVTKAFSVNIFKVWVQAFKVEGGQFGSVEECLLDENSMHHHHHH

LAMP1::histag [5] = target: T3, LAMP1::histag; experiment: ELISA on recombinant human LAMP1
LAMP1::histag [6] = target: T3, LAMP1::histag; experiment: ELISA with LAMP1
LAMP1_mseq4_ΔGYQTI = target: T7, LAMP1_mseq4_ΔGYQTI (human; mouse); experiment: flow cytometry, transfected 293-F cells
T7 construct: on cells; also called pXL6015

B1: MAb3 (antibody, V domains shown)
VH: QIQLVQSGPELKKPGETVKISCKASGYIFTNYGMNWVKQAPGKGLKWMGWINTYTGESRYADDFKGRFALSLETSASTAYLQINNLENEDMATYFCAREDYYGNSPWFFDVWGAGTTVTVSS
VL: DIQMTQTTSSLSASLGDRVTISCNASQGINKYLNWYQQKPDGTVKLLIYYTSTLHSGVPSRFSGSGSGTDYSLTINNLEPEDIATYYCQQYTKLPFTFGSGTKLEIK
notes: murine monoclonal IgG, kappa, from hybridoma; also called murine MAb3
B1: no binding (mLAMP1_ΔGYQTI).

B2: MAb1 (antibody, mouse IgG2a, kappa)
heavy: QVQLQQSGAELVKPGASVKMSCKASGYIFTNYNIHWVKKSPGQGLEWIGAIYPGNGDAPYSQKFKDKATLTADKSSSTTYMQLSRLTSEDSAVYYCVRANWDVAFAYWGQGTLVSVSAAKTTAPSVYPLAPVCGDTTGSSVTLGCLVKGYFPEPVTLTWNSGSLSSGVHTFPAVLQSDLYTLSSSVTVTSSTWPSQSITCNVAHPASSTKVDKKIEPRGPTIKPCPPCKCPAPNLLGGPSVFIFPPKIKDVLMISLSPIVTCVVVDVSEDDPDVQISWFVNNVEVHTAQTQTHREDYNSTLRVVSALPIQHQDWMSGKEFKCKVNNKDLPAPIERTISKPKGSVRAPQVYVLPPPEEEMTKKQVTLTCMVTDFMPEDIYVEWTNNGKTELNYKNTEPVLDSDGSYFMYSKLRVEKKNWVERNSYSCSVVHEGLHNHHTTKSFSRTPGK
light: DIQMTQSPPSLSASLGGKVTITCKASQDIDRYMAWYQDKPGKGPRLLIHDTSTLQPGIPSRFSGSGSGRDYSFSISNLEPEDIATYYCLQYDNLWTFGGGTKLEIKRADAAPTVSIFPPSSEQLTSGGASVVCFLNNFYPKDINVKWKIDGSERQNGVLNSWTDQDSKDSTYSMSSTLTLTKDEYERHNSYTCEATHKTSTSPIVKSFNRNEC
notes: murine monoclonal IgG, kappa, from hybridoma; also called murine MAb1
B2 was tested, and the binding result (mLAMP1::histag) was “no binding”, the EC50 (LAMP1::histag [1]) was 0.18 nM and the binding result [2] was “no binding”. The EC50 [3] was 0.16 nM, the EC50 [4] was 0.15 nM and the EC50 (LAMP1::histag [5]) was 0.18 nM. The EC50 (LAMP1::histag [6]) was 0.18 nM and the mean fluorescence (LAMP1_mseq4_ΔGYQTI) was 891.

B3: MAb2 (antibody, mouse IgG1, kappa)
heavy: QVQLQQSAAELARPGASVKMSCKASGYTFTSYTMHWVKQRPGQGLEWIGYFNPSSGYPEYNQKFKDKTTLTADKSSNTAFIQLNSLTSEDSAVYYCSRGYYYGSRGYALDFWGQGASVTVSSAKTTPPSVYPLAPGSAAQTNSMVTLGCLVKGYFPEPVTVTWNSGSLSSGVHTFPAVLQSDLYTLSSSVTVPSSTWPSETVTCNVAHPASSTKVDKKIVPRDCGCKPCICTVPEVSSVFIFPPKPKDVLTITLTPKVTCVVVDISKDDPEVQFSWFVDDVEVHTAQTQPREEQFNSTFRSVSELPIMHQDWLNGKEFKCRVNSAAFPAPIEKTISKTKGRPKAPQVYTIPPPKEQMAKDKVSLTCMITDFFPEDITVEWQWNGQPAENYKNTQPIMDTDGSYFVYSKLNVQKSNWEAGNTFTCSVLHEGLHNHHTEKSLSHSPGK
light: NIVLTQSPVSLAVSLGQRATISCRASESVDINGNTFMHWYQQKPGQSPKLVIYAASNIESGVPARFSGSGSSTDFTFTIDPVEADDVATYYCQQNIEDPWTFGGGTKVEIKRADAAPTVSIFPPSSEQLTSGGASVVCFLNNFYPKDINVKWKIDGSERQNGVLNSWTDQDSKDSTYSMSSTLTLTKDEYERHNSYTCEATHKTSTSPIVKSFNRNEC
notes: murine monoclonal IgG, kappa, from hybridoma; also called murine MAb2
For B3, the binding result (mLAMP1::histag) was “no binding”, the EC50 (LAMP1::histag [1]) was 0.25 nM and the binding result [2] was “no binding”. The EC50 [3] was 0.25 nM, the binding result [4] was “no binding” and the EC50 (LAMP1::histag [5]) was 0.25 nM. For the same binder, the EC50 (LAMP1::histag [6]) was 0.25 nM.

— patent publication US20180142032A1 (Sanofi, published 2018)
